Measured values: patent publication US20240343761A1, “APELINERGIC MACROCYCLES AND USES THEREOF” (priority 2021, published 2024)
Where two headings read alike, the source gives them in different places. Numbered stars: 1 amine (or outer) side, 2 acyl side, 3 side chain; on linkers, the order of the positions; unused ones are H or OH. Bridge positions count the residues as written; N and C are the ends. Square brackets hold non-standard residues; d marks the D form. Ends that are not written are not given here. Peptide text beside a SMILES is read from it. * marks the point of attachment. cypTyr(OBn) = 3-cyclopentyl-O-benzyl-L-tyrosine, O=C([C@H](Cc1ccc(OCc2ccccc2)c(C2CCCC2)c1)N[*:1])[*:2]; Hyp(OBn) = O-benzyl-4-hydroxyproline, O=C([C@@H]1C[C@@H](OCc2ccccc2)CN1[*:1])[*:2]; cypY = 3-cyclopentyl-tyrosine, O=C([C@H](Cc1ccc(O[*:3])c(C2CCCC2)c1)N[*:1])[*:2]; Tyr(OBn) = O-benzyl-tyrosine, O=C([C@H](Cc1ccc(OCc2ccccc2)cc1)N[*:1])[*:2]; pent‑4‑enoyl = des-amino allylglycine (Ø = desamino analog), C=CCCC(=O)*; Rx = Nα-allyl-arginine, C=CCN([C@@H](CCCNC(=N)N)C(=O)[*:2])[*:1]; Alnb = Nγ-allyl-Nγ-nosyl-α,γ-diamino-butanoic acid; Oic = O=C(O)[C@@H]1C[C@@H]2CCCC[C@@H]2N1; Phe(4-Br) = N[C@@H](Cc1ccc(Br)cc1)C(=O)O; Benzoyl(4-Br) = O=C(c1ccc(Br)cc1)*; hArg = N=C(N)NCCCC[C@H](N)C(=O)O; dcypTyr(OBn) = not defined here; AllylGly = C=CC[C@H](N)C(=O)O; pGlu = O=C1CC[C@@H](C(=O)O)N1; Nle = CCCC[C@H](N)C(=O)O; AIH = not defined here; B1 = not defined here; B3 = not defined here

How the values were obtained:
[1] = Rat plasma stability (half-life in vitro); type: in vitro ADME; details: male, Sprague-Dawley, rat, plasma, Table I; rat plasma, 37° C., up to 24 h
Description: Plasma was obtained from male Sprague-Dawley rats by collecting blood in heparin tube and centrifugating at 13,000 rpm to remove blood cells. The isolated plasma was stored at −80° C. and thawed right before the test. In 96-well plate, 6 μL of peptide solution at 1 mM was incubated with 27 μL of plasma at 37° C. in an oven equipped with orbital shaker. Tightly fitted caps were used to seal the wells to avoid water evaporation during incubation. […] A 96-well UPLC plate was put at the bottom to collect the samples. Both plates were centrifuged at 500 g for 10 min at 4° C. to accelerate the filtration. […] The quantity of remaining peptide was plotted into an exponential one-phase decay curve using GraphPad Prism 8 which allowed to calculate peptide half-life. The results were presented as mean±SEM of at least 3 independent experiments, each done in simplicate.
The percentage of remaining analogue was calculated by doing the ratio between AU of compound and AUC of internal standard. Half-lives were extrapolated from curves.

human APJ (hAPJ) = target: T1, human APJ (hAPJ) (Homo sapiens, UniProt P35414); test: Competitive radioligand binding ([125I][Nle75,Tyr77][Pyr1]-Ape13) on membranes of HEK293 cells stably expressing human APJ; details: Ki binding
T1 construct: expressed in transfected cells; cell membranes
T1 sequence (P35414 1-380): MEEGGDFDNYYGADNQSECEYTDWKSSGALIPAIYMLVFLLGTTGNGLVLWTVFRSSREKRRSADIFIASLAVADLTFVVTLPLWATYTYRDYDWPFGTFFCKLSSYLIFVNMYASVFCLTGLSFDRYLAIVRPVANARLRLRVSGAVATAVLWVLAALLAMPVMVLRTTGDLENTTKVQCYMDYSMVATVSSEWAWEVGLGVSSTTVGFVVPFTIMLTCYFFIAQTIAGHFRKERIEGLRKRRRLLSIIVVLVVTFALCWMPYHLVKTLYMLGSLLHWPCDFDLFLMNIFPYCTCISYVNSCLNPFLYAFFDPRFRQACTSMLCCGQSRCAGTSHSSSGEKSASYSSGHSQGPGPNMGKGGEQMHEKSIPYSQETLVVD
Description: HEK293 cells stably expressing YFP-tagged human APJ were cultured in DMEM medium supplemented with 10% FBS, at 37° C. under a humid atmosphere maintaining 5% CO2. Antibiotic G418 (400 μg/mL) was added to maintain a selection pressure for APJ-expressing cells while penicillin/streptomycin (0.1%) were used to prevent bacterial contamination.
Binding experiments were performed on cell membranes of HEK293 stably expressing the YFP-tagged human APJ receptor. Cells were frozen at −80° C. for storage and quickly thawed right before the experiments (1 min at 37° C.). […] The precipitate (cell membranes) was suspended in binding buffer (50 mM Tris-HCl, 0.2% BSA, pH 7.4). Binding assays were run in 96-well plates. […] (820 Ci/mmol)^3 and test ligand with a range of concentrations from 10^−1 to 10^−11 M in a total volume of 200 μL for 1 h at room temperature.
The incubation mixtures were filtered through a glass fiber filter (Millipore, pre-absorbed of PEI 0.5% for 2 h at 4° C.) to remove unbound ligands, and the filter membranes were washed three times with 170 μL cold binding buffer (4° C.). The γ emission was measured using a 1470 Wizard γ-counter from PerkinElmer (Waltham, USA) (80% efficiency).

[2] = target: T2, human APJ (transfected HEK293 cells, Gαi1 BRET assay) (human, UniProt P35414 1-380); test: cell-based or functional assay
T2 sequence (looked up): T1 sequence (P35414 1-380)

[3] = target: T3, YFP-tagged human APJ receptor (human, UniProt P35414 1-380); test: competitive radioligand binding, HEK293-hAPJ membranes
T3 construct: whole, on cells; also called hAPJ; APJ WT; not shown: YFP tag
T3 sequence (looked up): T1 sequence (P35414 1-380)

[4] = target: T3, YFP-tagged human APJ receptor; test: as above; remark: listed apart in the source
[5] = target: T2, human APJ (transfected HEK293 cells, …); test: cell-based or functional assay; remark: listed apart in the source
[6] = target: T2, human APJ (transfected HEK293 cells, …); test: cell-based or functional assay; remark: listed apart in the source
[7] = target: T3, YFP-tagged human APJ receptor; test: competitive radioligand binding, HEK293-hAPJ membranes; remark: listed apart in the source

Molecule: CC(C)C[C@@H]1NC(=O)[C@H](CCCNC(=N)N)NC(=O)[C@@H](N)CC=CC[C@@H](C(=O)N[C@@H](CCCCN)C(=O)NCC(=O)N2CCC[C@H]2C(=O)N[C@@H](C)C(=O)O)NC(=O)[C@H](CO)NC1=O [Compound 34, NH2-c[X-R-L-S-X]c-K-G-P-Ala] (H-[AllylGly]RLS[AllylGly]KGPA-OH; staple 1-5)
- half-life at 0.182 mM [1]: 48 ± 18 min
- Ki (human APJ (hAPJ)): > 10000 nM

Molecule: Ac-KFRRQRPRLEHAKPAPF (lactam 10-13) [Compound 62 (KT02-62)]
- EC50 Gαi1 [2]: 33.4 nM

Molecule: Ac-KFRRQRPRLEHKKP[Nle]P[cypTyr(OBn)] (lactam 10-13) [Compound 63 (KT02-76)]
- EC50 Gαi1 [2]: 5.47 nM
- Ki [3]: 0.25 nM

Molecule: Ac-KFRRQRPRLEHKKP[Nle]P[cypY] (lactam 10-13) [Compound 64 (KT02-78)]
- EC50 Gαi1 [2]: 19.4 nM
- Ki [3]: 0.77 nM

B1: Compound 65 (KT02-99) (peptide)
peptide: Ac-KFRRQRPRLEHKKP[Nle]P[dcypTyr(OBn)]
modifications: lactam 10-13; reading uncertain; also: printed as Ac-K-F-R-R-Q-R-P-R-L-[E-H-K-K]-P-Nle-P-dcypTyrOBn
- EC50 Gαi1 [2]: 73 nM
- Ki [3]: 4.16 nM

Molecule: Ac-KFRRQRPRLEHKKP[Nle]P[Tyr(OBn)] (lactam 10-13) [Compound 66 (KT03-02)]
- EC50 Gαi1 [2]: 21.7 nM
- Ki [3]: 1.6 nM

Molecule: KRRE[Nle]PLHSRVPFP (lactam 1-4) [Compound 72 (AM03-37)]
- Ki [4]: 0.87 nM
- EC50 Gail [5]: 1.7 nM

Molecule: KRRE[Nle]PLHSRV[Oic]FP (lactam 1-4) [Compound 73 (AM03-66)]
- Ki [4]: 11 nM
- EC50 Gail [5]: 14 nM

Molecule: [pGlu]RRE[Nle]PKHSRVPFP (lactam 4-7) [Compound 75 (ABB01-105)]
- Ki [4]: 59 nM
- EC50 Gail [5]: 19 nM

Molecule: [pGlu]RRSEPLHKRVPFP (lactam 5-9) [Compound 77 (ABB01-106)]
- Ki [4]: 6.2 nM
- EC50 Gail [5]: 6.1 nM

Molecule: [pGlu]RRSEPLHKRV[Oic]FP (lactam 5-9) [Compound 78 (AM03-67)]
- Ki [4]: 173 nM
- EC50 Gail [5]: 24 nM

Molecule: KRRE[Nle]CLHCRVPFP (lactam 1-4; disulfide 6-9) [Compound 79 (AM03-68)]
- Ki [4]: 0.61 nM
- EC50 Gail [5]: 4 nM

Molecule: [pGlu][hArg]RSEPLHKRVPFP (lactam 5-9) [Compound 90 (KT03-16)]
- EC50 Gail [5]: 15 nM

Molecule: [pGlu]R[hArg]SEPLHKRVPFP (lactam 5-9) [Compound 91 (KT03-17)]
- Ki [4]: 9.4 nM
- EC50 Gail [5]: 4.3 nM

Molecule: [pGlu]RRSEPLHKRVP[Phe(4-Br)]P (lactam 5-9) [Compound 92 (KT03-15)]
- EC50 Gail [5]: 16 nM

Molecule: [pGlu]RRSEPLHKRVPF[Hyp(OBn)] (lactam 5-9) [Compound 93 (KT03-19)]
- EC50 Gail [5]: 47 nM

Molecule: [pGlu]R[AllylGly]RLS[AllylGly]KGP[Nle]PF (staple 3-7) [Compound 97]
- Gαi1 Emax (%) [6]: 101%

Molecule: [pGlu]R[AllylGly]RLS[Alnb]KGP[Nle]PF (staple 3-7) [Compound 16 (KT01-123)]
- Gαi1 Emax (%) [6]: 102%

Molecule: H-[AllylGly]RLS[AllylGly]KGP[Nle]PF (staple 1-5) [Compound 20 (KT01-100)]
- Gαi1 Emax (%) [6]: 100%

Molecule: Guanidine-[AllylGly]RLS[AllylGly]KGP[Nle]PF (staple 1-5) [Compound 23 (KT01-121)]
- Gαi1 Emax (%) [6]: 103%

Molecule: H-[AllylGly]RLS[Alnb]KGP[Nle]PF (staple 1-5) [Compound 28 (KT01-135)]
- Gαi1 Emax (%) [6]: 106%

Molecule: H-[AllylGly]RLS[AllylGly]KGP[dY] (staple 1-5) [Compound 45 (KT04-42b)]
- Gαi1 Emax (%) [6]: 100%

Molecule: {Benzoyl(4-Br)}-RRSEPLHKRVP[Phe(4-Br)]P (lactam 4-8) [Compound 94 (KT04-16)]
- Ki [4]: 0.29 nM

Molecule: [pGlu]RKRLSDKGP[Nle]PF (lactam 3-7) [Compound 17 (KT01-106)]
- Ki [7]: 39 nM

Molecule: [Rx]RLS[AIH]KGP[Nle]PF (staple 1-5; reading uncertain) [Compound 26 (KT01-120)]
- Ki [7]: 382 nM

B2: Compound 27 (KT01-111) (peptide)
peptide: [pent‑4‑enoyl]RLS[AIH]KGP[Nle]PF
modifications: staple 1-5; not fully specified; printed as Ø-c[X-R-L-S-AIH]-K-G-P-Nle-P-F; reading uncertain
- Ki [7]: 380 nM

Molecule: Ac-ENTN[8‑aminooctanoic acid]RPRLKHKGP[Nle]PF (lactam 1-10) [Compound 46 (KT01-145)]
- Ki [7]: 32 nM

B3: Compound 50 (KT01-181) (peptide)
peptide: RKPXY
modifications: NH2-R-c[K(N-butenyl)-P-X]-Tyr(Obn): K(N-butenyl) 2 and X (allylglycine) 4 close the macrocycle; Tyr(OBn) 5
- Ki [7]: 7180 nM

Molecule: Ac-KFRRQRPRLEHKKP[Nle]P[B1] (lactam 10-13; reading uncertain) [Compound 67 (KT02-18)]
- Ki [3]: 12 nM

Molecule: Ac-KFRRQRPRLEHKKP[Nle]P[B3] (lactam 10-13; reading uncertain; also: B3 structure not given here) [Compound 69 (KT02-20)]
- Ki [3]: 3 nM

Molecule: [pGlu]RRK[Nle]PEHSRVPFP (lactam 4-7) [Compound 74 (AM03-38)]
- Ki [4]: 261 nM

Molecule: [pGlu]RRSKPLHERVPFP (lactam 5-9) [Compound 76 (AM03-40)]
- Ki [4]: 119 nM

Molecule: [Nle]PEHSRKPFP (lactam 3-7) [Compound 84 (ABB01-109)]
- Ki [4]: 274 nM
